Test results as given in patent US20200369765A1 (INNATE PHARMA, published 2020).

Key:
Human Siglec-9 mutant M7 = molecular target: T1, Human Siglec-9 mutant M7 (human, UniProt Q9Y336 18-463); test: flow cytometry, HEK293T transfectants
T1 construct: Expressed on HEK293T cells; also called Mutant 7

[1] = molecular target: T2, Human Siglec-9 mutant M11 (human, UniProt Q9Y336 18-463); test: flow cytometry, HEK293T transfectants
T2 construct: Expressed on HEK293T cells; also called Mutant 11

[2] = molecular target: T3, Human Siglec-9 mutant M14 (human, UniProt Q9Y336 18-463); test: flow cytometry, HEK293T transfectants
T3 construct: Expressed on HEK293T cells; also called Mutant 14

[3] = molecular target: T4, Human Siglec-9 mutant M15 (human, UniProt Q9Y336 18-463); test: flow cytometry, HEK293T transfectants
T4 construct: Expressed on HEK293T cells; also called Mutant 15

Siglec-9 Fc protein = molecular target: T5, Siglec-9 Fc protein (human); test: SPR (Biacore T200), Fab over immobilized Siglec-9 Fc, 1:1 model
T5 construct: Produced in CHO cells; also called human Siglec-9 Fc
Protocol: SPR measurements were performed on a Biacore™ T200 apparatus (Biacore™ GE Healthcare) at 25° C. In all Biacore™ experiments HBS-EP+(Biacore™ GE Healthcare) and NaOH 10 mM served as running buffer and regeneration buffer respectively. Sensorgrams were analyzed with Biacore™ T200 Evaluation software. Human siglec-9 and -7 multimeric proteins were cloned, produced and purified at Innate Pharma.
Proteins were immobilized covalently to carboxyl groups in the dextran layer on a Sensor Chip CM5. The chip surface was activated with EDC/NHS (N-ethyl-N′-(3-dimethylaminopropyl) carbodiamide hydrochloride and N-hydroxysuccinimide (Biacore™ GE Healthcare). Proteins were diluted to 10 μg/ml in coupling buffer (10 mM acetate, pH 4.2 & 5.0) and injected until the appropriate immobilization level was reached (i.e., 600 to 2000RU). Deactivation of the remaining activated groups was performed using 100 mM ethanolamine pH 8 (Biacore™, GE Healthcare).
The affinity study was carried out according to a standard Kinetic protocol recommended by the manufacturer (Biacore™ GE Healthcare kinetic wizard). […] The entire sensorgram sets were fitted using the 1:1 kinetic binding model. Monovalent affinities and kinetic association and dissociation rate constants are shown below in Table 2 below.

Human Siglec-9 mutant M8 [4] = molecular target: T6, Human Siglec-9 mutant M8 (human, UniProt Q9Y336 18-463); test: flow cytometry, HEK293T transfectants; '-' indicates full loss of binding
T6 construct: Expressed on HEK293T cells; also called Mutant 8

Human Siglec-9 mutant M8 [5] = molecular target: T6, Human Siglec-9 mutant M8; test: flow cytometry, HEK293T transfectants
Human Siglec-9 mutant M6 = molecular target: T7, Human Siglec-9 mutant M6 (human, UniProt Q9Y336 18-463); test: flow cytometry, HEK293T transfectants; '-' indicates full loss of binding
T7 construct: Expressed on HEK293T cells; also called Mutant 6

[6] = molecular target: T8, Human Siglec-9 mutant M16 (human, UniProt Q9Y336 18-463); test: as above
T8 construct: Expressed on HEK293T cells; also called Mutant 16
T8 sequence (Q9Y336 other isoform, or with tags, fused parts or gaps mutant): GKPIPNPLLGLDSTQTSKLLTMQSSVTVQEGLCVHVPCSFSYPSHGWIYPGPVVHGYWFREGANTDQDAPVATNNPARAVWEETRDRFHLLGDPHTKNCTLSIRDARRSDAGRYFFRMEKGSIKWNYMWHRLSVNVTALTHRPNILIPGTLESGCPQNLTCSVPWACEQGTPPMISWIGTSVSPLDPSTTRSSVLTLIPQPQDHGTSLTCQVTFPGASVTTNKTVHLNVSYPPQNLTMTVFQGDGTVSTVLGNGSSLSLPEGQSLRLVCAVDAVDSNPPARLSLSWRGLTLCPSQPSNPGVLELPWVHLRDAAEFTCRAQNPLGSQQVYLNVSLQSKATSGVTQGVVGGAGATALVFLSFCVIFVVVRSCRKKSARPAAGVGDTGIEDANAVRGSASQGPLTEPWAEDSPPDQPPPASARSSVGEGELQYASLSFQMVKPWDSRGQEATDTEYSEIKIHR

T5 sequence (chain, as listed by the source limits assumed): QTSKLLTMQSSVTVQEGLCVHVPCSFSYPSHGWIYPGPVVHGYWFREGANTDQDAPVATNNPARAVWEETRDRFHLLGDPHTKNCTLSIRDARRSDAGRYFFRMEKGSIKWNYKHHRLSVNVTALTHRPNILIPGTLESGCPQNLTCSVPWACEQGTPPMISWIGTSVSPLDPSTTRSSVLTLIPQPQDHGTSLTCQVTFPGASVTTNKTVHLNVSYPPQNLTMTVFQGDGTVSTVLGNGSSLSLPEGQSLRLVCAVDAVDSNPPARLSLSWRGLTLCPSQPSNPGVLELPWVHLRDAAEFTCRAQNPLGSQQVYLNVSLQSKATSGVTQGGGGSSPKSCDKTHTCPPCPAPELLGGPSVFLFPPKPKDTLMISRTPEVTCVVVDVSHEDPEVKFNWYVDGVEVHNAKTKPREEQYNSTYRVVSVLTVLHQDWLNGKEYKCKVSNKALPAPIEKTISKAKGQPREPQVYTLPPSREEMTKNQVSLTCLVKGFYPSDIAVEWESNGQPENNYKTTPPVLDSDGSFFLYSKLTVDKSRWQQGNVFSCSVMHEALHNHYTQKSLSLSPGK
T1 sequence (Q9Y336 other isoform, or with tags, fused parts or gaps mutant): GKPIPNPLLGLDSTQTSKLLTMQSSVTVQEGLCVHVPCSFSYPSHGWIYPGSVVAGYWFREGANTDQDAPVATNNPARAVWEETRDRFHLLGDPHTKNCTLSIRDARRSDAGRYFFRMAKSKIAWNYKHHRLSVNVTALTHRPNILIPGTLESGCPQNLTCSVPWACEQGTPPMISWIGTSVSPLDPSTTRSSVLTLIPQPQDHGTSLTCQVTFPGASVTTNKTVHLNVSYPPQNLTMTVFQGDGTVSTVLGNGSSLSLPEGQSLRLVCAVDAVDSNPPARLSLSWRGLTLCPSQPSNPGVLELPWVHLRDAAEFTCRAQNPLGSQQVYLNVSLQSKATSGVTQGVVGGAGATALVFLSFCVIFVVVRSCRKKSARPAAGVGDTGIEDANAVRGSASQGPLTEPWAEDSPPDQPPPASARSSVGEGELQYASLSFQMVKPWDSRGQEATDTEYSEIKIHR
T4 sequence (Q9Y336 other isoform, or with tags, fused parts or gaps mutant): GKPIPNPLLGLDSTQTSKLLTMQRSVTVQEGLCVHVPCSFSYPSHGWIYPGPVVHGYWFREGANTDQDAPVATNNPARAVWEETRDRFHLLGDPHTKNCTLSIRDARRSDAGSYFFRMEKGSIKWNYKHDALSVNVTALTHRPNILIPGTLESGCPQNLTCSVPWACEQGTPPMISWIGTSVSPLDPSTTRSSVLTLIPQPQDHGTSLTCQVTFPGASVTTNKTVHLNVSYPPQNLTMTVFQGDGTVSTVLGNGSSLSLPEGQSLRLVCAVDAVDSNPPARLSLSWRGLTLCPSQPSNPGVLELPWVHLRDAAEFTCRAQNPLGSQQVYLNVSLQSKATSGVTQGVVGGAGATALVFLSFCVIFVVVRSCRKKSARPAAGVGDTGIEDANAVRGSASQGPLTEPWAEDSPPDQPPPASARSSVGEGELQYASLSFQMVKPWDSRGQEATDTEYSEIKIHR
T6 sequence (Q9Y336 other isoform, or with tags, fused parts or gaps mutant): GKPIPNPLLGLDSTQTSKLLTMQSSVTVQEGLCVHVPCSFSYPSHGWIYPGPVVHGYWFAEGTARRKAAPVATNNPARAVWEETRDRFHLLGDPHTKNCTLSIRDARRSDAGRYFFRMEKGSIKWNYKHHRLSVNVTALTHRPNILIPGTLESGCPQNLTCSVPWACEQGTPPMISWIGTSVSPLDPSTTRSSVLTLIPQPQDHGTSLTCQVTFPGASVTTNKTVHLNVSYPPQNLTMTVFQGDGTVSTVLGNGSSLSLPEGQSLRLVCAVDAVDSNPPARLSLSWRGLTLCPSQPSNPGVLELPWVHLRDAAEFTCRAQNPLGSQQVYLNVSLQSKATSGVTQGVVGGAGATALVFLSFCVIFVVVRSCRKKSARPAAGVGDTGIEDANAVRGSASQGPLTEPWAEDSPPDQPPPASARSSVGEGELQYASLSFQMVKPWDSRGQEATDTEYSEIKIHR
T3 sequence (Q9Y336 other isoform, or with tags, fused parts or gaps mutant): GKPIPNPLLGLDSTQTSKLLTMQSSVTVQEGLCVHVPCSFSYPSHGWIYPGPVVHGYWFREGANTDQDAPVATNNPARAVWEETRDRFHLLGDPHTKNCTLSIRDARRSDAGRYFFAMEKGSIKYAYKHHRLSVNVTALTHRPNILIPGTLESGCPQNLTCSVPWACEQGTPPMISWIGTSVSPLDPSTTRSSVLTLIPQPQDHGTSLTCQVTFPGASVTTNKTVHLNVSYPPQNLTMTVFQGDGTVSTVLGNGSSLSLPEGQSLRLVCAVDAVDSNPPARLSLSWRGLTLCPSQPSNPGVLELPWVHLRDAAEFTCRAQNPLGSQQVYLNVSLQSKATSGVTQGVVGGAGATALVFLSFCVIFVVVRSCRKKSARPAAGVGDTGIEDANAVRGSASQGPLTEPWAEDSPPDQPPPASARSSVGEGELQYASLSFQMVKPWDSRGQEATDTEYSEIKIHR
T2 sequence (Q9Y336 other isoform, or with tags, fused parts or gaps mutant): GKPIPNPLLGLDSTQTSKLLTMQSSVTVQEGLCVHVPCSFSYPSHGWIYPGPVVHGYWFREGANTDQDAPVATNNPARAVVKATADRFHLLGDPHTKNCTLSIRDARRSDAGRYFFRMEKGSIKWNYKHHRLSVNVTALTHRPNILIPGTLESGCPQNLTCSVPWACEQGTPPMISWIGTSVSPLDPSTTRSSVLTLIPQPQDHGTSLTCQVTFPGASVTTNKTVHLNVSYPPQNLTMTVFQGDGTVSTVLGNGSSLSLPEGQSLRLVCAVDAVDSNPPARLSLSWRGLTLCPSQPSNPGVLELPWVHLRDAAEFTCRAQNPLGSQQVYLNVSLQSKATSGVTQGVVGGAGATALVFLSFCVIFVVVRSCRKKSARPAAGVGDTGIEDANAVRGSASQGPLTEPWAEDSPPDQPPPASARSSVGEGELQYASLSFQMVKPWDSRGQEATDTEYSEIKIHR
T7 sequence (Q9Y336 other isoform, or with tags, fused parts or gaps mutant): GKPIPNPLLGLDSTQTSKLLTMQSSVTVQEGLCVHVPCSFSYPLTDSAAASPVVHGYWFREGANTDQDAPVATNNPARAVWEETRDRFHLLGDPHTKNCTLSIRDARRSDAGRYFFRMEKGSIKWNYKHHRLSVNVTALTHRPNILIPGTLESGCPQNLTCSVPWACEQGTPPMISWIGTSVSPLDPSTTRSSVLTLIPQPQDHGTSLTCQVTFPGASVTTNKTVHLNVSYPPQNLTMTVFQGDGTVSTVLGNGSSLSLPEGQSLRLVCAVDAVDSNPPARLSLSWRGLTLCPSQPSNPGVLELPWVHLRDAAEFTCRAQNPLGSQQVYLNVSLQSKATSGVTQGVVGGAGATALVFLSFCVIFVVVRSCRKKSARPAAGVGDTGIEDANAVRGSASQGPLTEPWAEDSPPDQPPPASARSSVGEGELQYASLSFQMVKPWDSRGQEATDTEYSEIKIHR

| Binder | binding result (Human Siglec-9 mutant M7) | binding result [1] | binding result [2] | binding result [3] | Kd (Siglec-9 Fc protein) [nM] | koff (Siglec-9 Fc protein) [s⁻¹] | binding result (Human Siglec-9 mutant M8 [4]) | binding result (Human Siglec-9 mutant M8 [5]) | binding result (Human Siglec-9 mutant M6) | binding result [6] |
| --- | --- | --- | --- | --- | --- | --- | --- | --- | --- | --- |
| Fab.C (Fab of mAbC) (Fab, V domains shown) VH: QIQLVQSGPELKKPGETVKISCKASGYTFTNYEMNWVKEAPGKGLKWMGWINTYTGESTYADDFKGRFAFSLETSASTVYLQINNLKDEDVATYFCVRDDYGRSYGFAYWGQGTLVTVSA VL: NIVLTQSPASLTVSLGQRANISCRASESVDSYGNSFMHWYQQKPGQPPKLLIYLASKLESGVPARFSGSGSRTDFTLTIDPVETDDAATYYCHQNNEDPPWTFGGGTKLEIK | binds | binds | binds | binds | 0.55 | 0.00043 | no binding | – | – | – |
| Fab.D (Fab of mAbD) (Fab, V domains shown) VH: QIQLVQSGPELKKPGETVKISCKASGYTFTDYSMHWVKQAPGKGLKWMGWIITETGEPTYADDFRGRFAFSLETSANTAYLQINNLKNEDTATYFCARDFDGYWGQGTTLTVSS VL: DILMTQSPASLSASVGETVTITCRASENIYSYLAWYQQKRGKSPQFLVYNAKTLTEGVPSRFRGSGSGTQFSLKINSLQPEDFGTYYCQHHYGFPWTFGGGTKLEIK | – | binds | binds | binds | 4.12 | 0.00011 | – | binds | no binding | – |
| Fab.A (Fab of mAbA) (Fab, V domains shown) VH: QVQLQQPGAELVKPGSPVKLSCKASYFTFTSYWMHWVRQRPGQGLEWIGEINPSNGHTNYNEKFESKATLTVDRSSSTAYMQLSSLTSEDSAVFYCANGVESYDFDDALDYWGQGTSVTVSS VL: DIQMTQTTSSLSASLGDRVTISCRASQDINNYLNWYQQKPDGTIKLLIYYTSRLHSGVPSRFSGSGSGTDYSLTINNLEQEDIATYFCQQGNTLPFTFGGGTKLEIK | binds | – | – | binds | 0.04 | 2.5e-05 | – | binds | – | no binding |
| Fab.B (Fab of mAbB) (Fab, V domains shown) VH: QVQLQQPGAELVKPGASVKLSCKASVYTFTSYWMHWVKQRPGQGLEWIGEINPSNGHTNYNEKFKTKAKLTVDKSSSTAYMQLSSLTSEDSAVYFCANGVETYDFDDAMDYWGQGTSVTVSS VL: DIQMTQTTSSLSASLGDRVTISCRASQDINNYLNWYQQKPDGTVKLLIYFTSRLHSGVPSRFSGSGSGTDYSLTISNLEQEDIATYFCQQGDTFPFTFGGGTKLEIK | binds | – | – | binds | 0.37 | 0.00031 | – | binds | – | no binding |
